Measured values taken from publication PMC7022988, “General and Genomic DNA-Binding Specificity for the Thermus thermophilus HB8 Transcription Factor TTHB023”.
Where a chain is given by its changes, count along the chain named.

T1: TTHB023 (PfmR) (Thermus thermophilus HB8) (UniProt Q53WD9)
T1 sequence: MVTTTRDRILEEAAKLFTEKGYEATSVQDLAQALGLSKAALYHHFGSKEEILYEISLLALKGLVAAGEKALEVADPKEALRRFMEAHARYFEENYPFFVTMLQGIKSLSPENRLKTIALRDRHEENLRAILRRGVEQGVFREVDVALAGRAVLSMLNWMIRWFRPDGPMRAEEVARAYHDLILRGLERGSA

T2: TTHB023 (PfmR) (Thermus thermophilus HB8, UniProt Q53WD9 1-191)
T2 sequence: T1 sequence

B1: m1 (dsDNA)
DNA 1: CTAGGAATTCGTGCAGAGGTGAATGTGACCGATCGGTCAGTTACCATCCCTCCAGAAGCTTGGACA
DNA 2: TGTCCAAGCTTCTGGAGGGATGGTAACTGACCGATCGGTCACATTCACCTCTGCACGAATTCCTAG
B2: m8 (dsDNA)
DNA 1: B1 DNA 1 with G25C, A32C
DNA 2: B1 DNA 2 with T35G, C42G
B3: m4 (dsDNA)
DNA 1: B1 DNA 1 with G25C, A28C
DNA 2: B1 DNA 2 with T39G, C42G
B4: m3 (dsDNA)
DNA 1: B1 DNA 1 with G25C, G27C
DNA 2: B1 DNA 2 with C40G, C42G
B5: m7 (dsDNA)
DNA 1: B1 DNA 1 with G25C, G31C
DNA 2: B1 DNA 2 with C36G, C42G
B6: m2 (dsDNA)
DNA 1: B1 DNA 1 with G25C, T26G
DNA 2: B1 DNA 2 with A41C, C42G
B7: m5 (dsDNA)
DNA 1: B1 DNA 1 with G25C, C29T
DNA 2: B1 DNA 2 with G38A, C42G
B8: m6 (dsDNA)
DNA 1: B1 DNA 1 with G25C, C30G
DNA 2: B1 DNA 2 with G37C, C42G
B9: REPSAis control (dsDNA)
DNA 1: CTAGGAATTCGTGCAGAGGTGAATCGTCATAGAATTCGTTACCATCCCTCCAGAAGCTTGGACA
DNA 2: TGTCCAAGCTTCTGGAGGGATGGTAACGAATTCTATGACGATTCACCTCTGCACGAATTCCTAG

How the values were obtained:
[1] = molecular target: T1, TTHB023 (PfmR) (Thermus thermophilus HB8); assay: BLI; settings: BLI: 20 mM Tris-Cl pH 7.7, 100 mM NaCl, 1 mM EDTA, 0.05% Tween 20, 1.4 nM biotin-DNA loaded at 37 °C, 3.7-300 nM protein; EMSA: 1x NEB CutSmart buffer, 55 °C …
TTHB023 (PfmR) [2] = molecular target: T2, TTHB023 (PfmR); assay: BLI; printed koff/kon (1.072e-4/2.350e5) does not match printed KD; BLI: 20 mM Tris-Cl pH 7.7, 100 mM NaCl, 1 mM EDTA, 0.05% Tween 20, 1.4 nM biotin-DNA loaded at 37 °C, 3.7-300 nM protein; EMSA: 1x NEB CutSmart buffer, 55 °C 20 min, 1 ng DNA in 5 µL, 10% native PAGE; settings: protein: recombinant; chain copies: 2; label: 5' biotin-dT on strand 2; blunt
TTHB023 (PfmR) [3] = molecular target: T2, TTHB023 (PfmR); assay: BLI; BLI: 20 mM Tris-Cl pH 7.7, 100 mM NaCl, 1 mM EDTA, 0.05% Tween 20, 1.4 nM biotin-DNA loaded at 37 °C, 3.7-300 nM protein; EMSA: 1x NEB CutSmart buffer, 55 °C 20 min, 1 ng DNA in 5 µL, 10% native PAGE; settings: protein: recombinant; chain copies: 2; label: 5' biotin-dT on strand 2; blunt
TTHB023 (PfmR) [4] = molecular target: T2, TTHB023 (PfmR); assay: BLI; slight effect only at 300 nM, nonspecific; Kd extrapolated; BLI: 20 mM Tris-Cl pH 7.7, 100 mM NaCl, 1 mM EDTA, 0.05% Tween 20, 1.4 nM biotin-DNA loaded at 37 °C, 3.7-300 nM protein; EMSA: 1x NEB CutSmart buffer, 55 °C 20 min, 1 ng DNA in 5 µL, 10% native PAGE; settings: protein: recombinant; chain copies: 2; label: 5' biotin-dT on strand 2; blunt

Molecule	Kd (TTHB023 (PfmR) [3]) [nM]	other results
CTAGGAATTCGTGCAGAGGTGAATCTGACCGATCGGTCAGTTACCATCCCTCCAGAAGCTTGGACA (double strand) [ST2_B023_R6_wt consensus (BLI probe)]	–	Kd [1]: 2.1 nM
B1	–	Kd (TTHB023 (PfmR) [2]): 4.56 nM
B2	59.5	–
B3	27.8	–
B4	6.62	–
B5	205	–
B6	23	–
B7	53.1	–
B8	279	–
B9	–	Kd (TTHB023 (PfmR) [4]): 138000 nM
